Experiments:
[1] = target: human pro B-type natriuretic peptide (HyTest, Turku, Finland; Catalog No. 8PRO8) (human); experiment: sandwich CMIA, capture 15C4, analyte 288.7 pM
[2] = target: glycosylated human proBNP (HyTest, Turku, Finland; Catalog No. 8GOB2) (human); experiment: sandwich CMIA, capture 15C4, analyte 288.7 pM
[3] = target: human NT-pro B-type natriuretic peptide (HyTest, Turku, Finland; Catalog No. 8NT1) (human); experiment: sandwich CMIA, capture 15C4, analyte 288.7 pM
[4] = target: human pro B-type natriuretic peptide (HyTest, Turku, Finland; Catalog No. 8PRO8) (human); experiment: sandwich CMIA, capture 15C4, analyte 86.6 pM
[5] = target: glycosylated human proBNP (HyTest, Turku, Finland; Catalog No. 8GOB2) (human); experiment: sandwich CMIA, capture 15C4, analyte 86.6 pM
[6] = target: human NT-pro B-type natriuretic peptide (HyTest, Turku, Finland; Catalog No. 8NT1) (human); experiment: sandwich CMIA, capture 15C4, analyte 86.6 pM
[7] = target: human pro B-type natriuretic peptide (HyTest, Turku, Finland; Catalog No. 8PRO8) (human); experiment: sandwich CMIA, capture 15F11, 86.6 pM, against human NT-proBNP
[8] = target: glycosylated human proBNP (HyTest, Turku, Finland; Catalog No. 8GOB2) (human); experiment: as above
[9] = target: human pro B-type natriuretic peptide (HyTest, Turku, Finland; Catalog No. 8PRO8) (human); experiment: sandwich CMIA, capture 15F11, 43.3 pM, against human NT-proBNP
[10] = target: glycosylated human proBNP (HyTest, Turku, Finland; Catalog No. 8GOB2) (human); experiment: as above
[11] = target: human pro B-type natriuretic peptide (HyTest, Turku, Finland; Catalog No. 8PRO8) (human); experiment: sandwich CMIA, capture 15F11, 288.7 pM, against human NT-proBNP
[12] = target: glycosylated human proBNP (HyTest, Turku, Finland; Catalog No. 8GOB2) (human); experiment: as above

human pro B-type natriuretic peptide (HyTest, Turku, Finland; Catalog No. 8PRO8) (human), sequence (chain, as listed by the source): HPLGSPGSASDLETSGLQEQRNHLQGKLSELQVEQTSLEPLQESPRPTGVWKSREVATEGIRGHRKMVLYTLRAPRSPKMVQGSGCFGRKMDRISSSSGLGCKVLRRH
human NT-pro B-type natriuretic peptide (HyTest, Turku, Finland; Catalog No. 8NT1) (human), sequence (chain, as listed by the source): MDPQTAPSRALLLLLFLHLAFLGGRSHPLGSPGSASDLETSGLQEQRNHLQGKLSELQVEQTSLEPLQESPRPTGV

Analyte rlus [1]: 12100 rlus
Analyte rlus [2]: 1220 rlus
Analyte rlus [3]: 82800 rlus
Analyte rlus [4]: 3830 rlus
Analyte rlus [5]: 1020 rlus
Analyte rlus [6]: 19300 rlus
% Cross-reactivity [7]: 49.3%
% Cross-reactivity [8]: 136%
% Cross-reactivity [9]: 61.2%
% Cross-reactivity [10]: 132%
% Cross-reactivity [11]: 38.3%
% Cross-reactivity [12]: 113%
Substance: anti-human NT-proBNP/anti-human proBNP labeled monoclonal antibody 29D12 (HyTest, Turku, Finland)
